In US20030091565A1 (Human Genome Sciences, published 2003):
No end group written: not given here.

Experiments:
[1] = molecular target: T1, B lymphocyte stimulator protein (BLyS), recombinant (human, UniProt Q9Y275 134-285, limits assumed, biotinylated in the phage screening and phage ELISA; unlabeled in fluorescence anisotropy); test: not stated there (fluorescence anisotropy elsewhere)
T1 construct: also called biotinylated BLyS; b-BLyS

[2] = molecular target: T1, B lymphocyte stimulator protein (BLyS), …; test: fluorescence anisotropy
Procedure: Dissociation constants between the synthetic peptides and BLyS (free in solution) were measured by fluorescence anisotropy (FA). In these experiments, the concentration of the fluorescein-labeled peptide is held constant and the BLyS protein concentration was varied. The observed change in anisotropy is fit to the following equation via nonlinear regression to obtain the apparent KD.
Binding reactions containing 50 nM fluorescein-labeled peptide and a varied concentration of BLyS in a volume between 10 and 20 μL per well were performed in 384 well microplates. Reactions were assayed using a Tecan Polarion fluorescence polarization plate reader. Cross-competition studies between peptides were performed using 50 nM fluorescein-labeled peptide and 1-2 μM BLyS in the presence and absence of 100 μM unlabeled peptide. […] Other buffers in which dissociation constants of BLyS Binding polypeptides were detremined include: [pH 6.0, 0.01% Tween], [pH 6.0, 0.1% gelatin], [pH5.0, 0.01% Tween], [pH9.0, 0.1% Tween], [pH6.0, 15% ethylene glycol, 0.01 % Tween], ], [pH5.0, 15% ethylene glycol, 0.01 % Tween], and [pH9.0, 15% ethylene glycol, 0.01 % Tween].

[3] = molecular target: T1, B lymphocyte stimulator protein (BLyS), …; test: not stated there

T1 sequence (Q9Y275 134-285 limits assumed): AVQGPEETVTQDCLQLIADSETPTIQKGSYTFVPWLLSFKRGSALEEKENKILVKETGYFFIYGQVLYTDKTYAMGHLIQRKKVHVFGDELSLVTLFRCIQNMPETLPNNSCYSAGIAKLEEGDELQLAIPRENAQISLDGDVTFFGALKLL

Ac-WTDSLTGLWFPDGGPGPEGGGK [DX221]
Kd [1]: 3 µM

B1: DX876 (peptide)
peptide: Ac-WYDPLTKLWLGGK(fitc)
notes: 10-mer core (positions 3-12 of the 14-mer) with GGK linker
Kd [2]: 0.171 µM

VPFCDLLTKHCFEA (on M13 phage; also called TN8-01-B07) [453-01-B07]
Kd [3]: 0.7 µM
